Test results: the RNAGym collection of RNA variant scans (doi:10.1093/nar/gkz1192)

B1: CPEB3 Ribozyme (parent)
chain: UAACAGGGGGCCACAGCAGAAGCGUUCACGUCGCAGCCCCUGUCAGAUUCUGGUGAAUCUGCGAAUUCUGCUGUAUAUCUC

Variants of: B1
Assay: self-cleavage, relative activity (ratio to wild type); higher = more cleavage; in vitro, sequencing
In short: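 Barcoded CPEB3 ribozyme mutants, produced by rounds of error-prone PCR, self-cleaved while being transcribed with T7 RNA polymerase for 5 hours at 37°C and during a subsequent 15 min DNase I step before EDTA was added. Sequencing of template-switched cDNA on Illumina gave cleaved and total reads, and DNA sequencing assigned barcodes to variants. Each variant's relative activity is its cleaved/total read fraction divided by the unmutated ribozyme's fraction, averaged across three batches. A variant needed a minimum of 5 reads.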

Variant | self-cleavage
U31A U43G | 0.33
U31A U48A | 0.13
U31A U48C | 0.29
U31A U48G | 0.16
U31A U49A | 0.41
U31A U49C | 0.22
U31A U51A | 0.59
U31A U51C | 0.46
U31A U51G | 0.33
U31A U54A | 0.55
U31A U54C | 0.5
U31A U54G | 0.55
U31A U58C | 0.36
U31A U60A | 0.32
U31A U60C | 0.25
U31A U60G | 0.2
U31A U66C | 0.26
U31A U67A | 0.34
U31A U67C | 0.2
U31A U69A | 0.29
U31A U69C | 0.3

Variant | self-cleavage
U31A U69G | 0.27
U31A U72A | 0.41
U31A U72C | 0.66
U31A U74A | 0.74
U31A U74C | 0.77
U31A U74G | 0.84
U31A U76C | 0.48
U31A U78A | 0.41
U31A U78C | 0.46
U31A U78G | 0.46
U31A U80A | 0.61
U31A U80C | 0.66
U31A U80G | 0.55
U31C | 0.87
U31C A35C | 0.46
U31C A35G | 1.21
U31C A35U | 0.32
U31C A45C | 0.22
U31C A45G | 0.52
U31C A45U | 0.32
U31C A47C | 0.31

Variant | self-cleavage
U31C A47G | 0.8
U31C A47U | 0.4
U31C A56G | 0.67
U31C A56U | 0.47
U31C A57C | 0.49
U31C A57G | 0.75
U31C A57U | 0.47
U31C A64C | 0.14
U31C A64G | 0.64
U31C A64U | 0.31
U31C A65G | 0.35
U31C A65U | 0.25
U31C A75C | 1.1
U31C A75G | 0.77
U31C A75U | 0.87
U31C A77G | 0.94
U31C A77U | 0.86
U31C C32A | 0.31
U31C C32U | 0.22
U31C C34A | 0.15
U31C C34U | 0.24

Variant | self-cleavage
U31C C37A | 0.28
U31C C37U | 0.46
U31C C38A | 0.33
U31C C38G | 0.16
U31C C38U | 0.98
U31C C39A | 0.18
U31C C40A | 0.2
U31C C40U | 0.49
U31C C44A | 0.4
U31C C44G | 0.31
U31C C44U | 0.26
U31C C50A | 0.67
U31C C50U | 0.82
U31C C59A | 0.29
U31C C59U | 0.54
U31C C62A | 0.23
U31C C62G | 0.14
U31C C62U | 0.24
U31C C68A | 0.28
U31C C68U | 0.75
U31C C71G | 0.23
